T1: ArnR ([4Fe-4S] form) (Corynebacterium glutamicum ATCC 13032, UniProt Q8NR72 1-230)
T1 sequence: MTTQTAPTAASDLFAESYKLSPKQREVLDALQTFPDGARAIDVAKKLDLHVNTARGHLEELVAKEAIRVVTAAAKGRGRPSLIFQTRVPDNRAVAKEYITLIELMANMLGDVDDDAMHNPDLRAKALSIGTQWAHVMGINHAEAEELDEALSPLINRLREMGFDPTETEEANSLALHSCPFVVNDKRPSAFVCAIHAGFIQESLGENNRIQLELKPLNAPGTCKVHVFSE

B1: hmp promoter 80 bp (JC01_F/JC02_R) (dsDNA)
DNA 1: CGCCTTTCCATGCTTCATGGGTTAATTTCTACGGATTTAATCTAATTAAATAAATCCCAGGATCCAAGCAATTTGGCCTT
DNA 2: AAGGCCAAATTGCTTGGATCCTGGGATTTATTTAATTAGATTAAATCCGTAGAAATTAACCCATGAAGCATGGAAAGGCG
B2: hmp promoter 30 bp (JC05_F/JC06_R) (dsDNA)
DNA 1: GGATTTAATCTAATTAAATAAATCCCAGGA
DNA 2: TCCTGGGATTTATTTAATTAGATTAAATCC

What was measured:
ArnR ([4Fe-4S] form) [1] = biological target: T1, ArnR ([4Fe-4S] form); experiment: EMSA; [4Fe-4S]; maximal binding at ~315 nM [4Fe-4S] (~32-fold over DNA); SPR: HBS+P (10 mM HEPES, 150 mM NaCl, surfactant P20) with 1 mM DTT, pH 7.4, 25 C, anaerobic; EMSA: 10 mM Tris, 54 mM KCl, 0.3% glycerol, pH 7.5, on ice; native MS: DNA in 100 mM ammonium acetate, pH 8; conditions: protein: recombinant; tags: C-terminal His; chain copies: 2; label: 5' 6-FAM on strand 1; blunt
ArnR ([4Fe-4S] form) [2] = biological target: T1, ArnR ([4Fe-4S] form); experiment: native MS; [4Fe-4S], two clusters per dimer; complex at 71438 Da; [4Fe-4S]:[DNA] ~1; SPR: HBS+P (10 mM HEPES, 150 mM NaCl, surfactant P20) with 1 mM DTT, pH 7.4, 25 C, anaerobic; EMSA: 10 mM Tris, 54 mM KCl, 0.3% glycerol, pH 7.5, on ice; native MS: DNA in 100 mM ammonium acetate, pH 8; conditions: protein: recombinant; tags: C-terminal His; chain copies: 2; blunt

Row | Binder | binding result (ArnR ([4Fe-4S] form) [1]) | binding result (ArnR ([4Fe-4S] form) [2])
1 | B1 | binds | 
2 | B2 |  | binds
